From the RNAGym collection of RNA variant scans (doi:10.7554/elife.80360)

B1: CPEB3 Ribozyme (parent)
chain: GGGGGCCACAGCAGAAGCGUUCACGUCGCGGCCCCUGUCAGAUUCUGGUGAAUCUGCGAAUUCUGCUGU

Variants of: B1
Experiment: self-cleavage, relative activity (ratio to wild type); higher = more cleavage; co-transcriptional

In order of rising self-cleavage:
1. A16C G31A  0.0686
2. A16C C22U  0.0688
3. A16C U44A  0.0709
4. A16C C32A  0.0786
5. A16C U20A  0.0817
6. A16C C57G  0.0856
7. A16C G25C  0.0921
8. A16C U64A  0.0981
9. A16G C27G  0.102
10. A16C A59C  0.106
11. A16C G28U  0.113
12. A16C G31C  0.113
13. A15U G25A  0.121
14. A16C G31U  0.124
15. A16C U20C  0.125
16. A16G C32G  0.125
17. A15G U20C  0.126
18. A16C C18U  0.128
19. A16C C57A  0.129
20. A16G C18G  0.129
21. A16G G37A  0.13
22. A16G G17C  0.131
23. A16C G56C  0.131
24. A16C G30U  0.131
25. A16C U64C  0.145
26. A16C U62G  0.148
27. A16C C39G  0.151
28. A15U C29U  0.151
29. A16C U62A  0.152
30. A15U C27U  0.153
31. A16G C22U  0.156
32. A16G G19C  0.158
33. A16C U53A  0.16
34. A16C A40G  0.16
35. A16C C24A  0.161
36. A15U G28A  0.161
37. A16G G19A  0.163
38. A16C C24U  0.164
39. A16C U55C  0.165
40. A16C C34A  0.165
41. A15U G25C  0.165
42. A16G C22A  0.167
43. A15U G17C  0.171
44. A16C U21C  0.174
45. A16C G65C  0.174
46. A16G C35A  0.179
47. A16C G41C  0.18
48. A16C C39U  0.184
49. A16G G19U  0.184
50. A15U C35G  0.187
51. A16G G28U  0.188
52. A16C G30A  0.188
53. A15U C35A  0.192
54. A16C U43G  0.198
55. A16C C66U  0.203
56. A16C U43C  0.204
57. A16G G28A  0.215
58. A16C A60C  0.215
59. A16C A59U  0.221
60. A16C U62C  0.222
61. A16G C27U  0.228
62. A16C G50A  0.23
63. A16C G56A  0.231
64. A16C A42G  0.24
65. A16C U61C  0.26
66. A16C C33U  0.261
67. A16C C45A  0.264
68. A16C C45G  0.272
69. A15U G41A  0.28
70. A15U A40U  0.288
71. A16C U67C  0.289
72. A16C U46C  0.293
73. A15U C33G  0.294
74. A15U C24A  0.299
75. A16C G50U  0.306
76. A16C U44G  0.307
77. A16C U46G  0.309
78. A16G C29G  0.309
79. A15U C57U  0.323
80. A15U A60U  0.325
81. A15U U55G  0.335
82. A16C C45U  0.339
83. A16G C35G  0.373
84. A16G C24G  0.385
85. A16C A52G  0.389
86. A16G G41A  0.404
87. A16C G68U  0.408
88. A16C G48C  0.409
89. A16G C54A  0.413
90. A16C U61A  0.418
91. A16C G47U  0.427
92. A15U G65U  0.47
93. A16G C24A  0.481
94. A16G C27A  0.481
95. A15U U44C  0.516
96. A15U G56U  0.517
97. A16G A59U  0.535
98. A16G U26C  0.555
99. A15U U36C  0.557
100. A15U A16G  0.56
101. A16G G65U  0.571
102. A16G C66A  0.579
103. A16G C54G  0.581
104. A15U C39U  0.583
105. A16G C32A  0.607
106. A15U U38C  0.613
107. A16G G65A  0.622
108. A16G G56U  0.634
109. A16G A60G  0.663
110. A16G C24U  0.68
111. A15U A42G  0.68
112. A15U U44G  0.713
113. A15U G65A  0.753
114. A15U C63G  0.764
115. A15G U43G  0.779
116. A16G A40G  0.788
117. A16G C33A  0.795
118. A15U C45A  0.795
119. A15G G65A  0.82
120. A16C U69C  0.82
121. A15U U67C  0.827
122. A16G A42U  0.83
123. A15U U21A  0.841
124. A15G U64A  0.845
125. A15G U21C  0.847
126. A15U A51U  0.851
127. A15G U43A  0.851
128. A16G A42G  0.855
129. A15U C45U  0.858
130. A16G C63U  0.861
131. A15G U38A  0.877
132. A15G U53A  0.893
133. A16G G50C  0.896
134. A15U U46G  0.898
135. A15U G48U  0.9
136. A15U C32U  0.913
137. A16G A51U  0.914
138. A16G G50A  0.915
139. A16G U21A  0.92
140. A16G A52C  0.927
141. A15U U61A  0.931
142. A16G G58A  0.932
143. A16G G47A  0.933
144. A15U G68A  0.937
145. A15U A52G  0.939
146. A15G U64C  0.939
147. A15G U62G  0.94
148. A15U G50A  0.943
149. A15G U44G  0.954
150. A15G G50C  0.956
151. A15U U69A  0.961
152. A16G G58U  0.962
153. A15G G58A  0.964
154. A15U G48C  0.965
155. A15U G68U  0.967
156. A15G U46G  0.974
157. A15U U46A  0.985
158. A15G U44A  0.987
159. A15G U44C  0.99
160. A15G G50U  0.995
161. A15U U62A  1.01
162. A15G G68U  1.01
163. A16G G68A  1.02
164. A16G G47C  1.02
165. A15U U69C  1.03
166. A15G U46A  1.04
167. A15G G47U  1.04
